# “Also recorded” adds a separate entry of the source.
# B1: Rpn13_260-407: Rpn13 C-terminal domain (residues 260–407), human, expressed in E. coli (protein)
# chain: QPIQLSDLQSILATMNVPAGPAGGQQVDLASVLTPEIMAPILANADVQERLLPYLPSGESLPQTADEIQNTLTSPQFQQALGMFSAALASGQLGPLMCQFGLPAEAVEAANKGDVEAFAKAMQNNAKPEQKEGDTKDKKDEEEDMSLD
# modifications: left off: thioredoxin A (TxA), N-terminal, cleaved | His6, N-terminal, cleaved
# notes: Rpn13 C-terminal domain (residues 260–407), human, expressed in E. coli
# System: K160E/R164E double mutant SGTA_TPR
# Assay: Size exclusion chromatography (SEC) complex formation with K160E/R164E double mutant SGTA_TPR
# Assay type: binding, human
# Settings: Rpn13_260-407 up to 3-fold molar excess
# Source text: The ‘two-carboxylate clamp’ mode of binding is a well-characterised mechanism of molecular recognition by TPR domains in the context of their binding to the conserved C-terminal IEEVD and MEEVD motifs of Hsp70 and Hsp90 chaperones, respectively. It is known that conserved residues present on the concave surface of the TPR domain form a positively charged region within this groove that clamp, the two carboxylate groups of the terminal aspartate (Fig. 3D). As the Rpn13 amino acid sequence ends with an aspartate, and given the C-terminal DMSLD peptide being necessary and sufficient for this interaction, the possibility of a two-carboxylate clamp mechanism was explored by site-directed mutagenesis experiments. […] Therefore a K160E/R164E double mutant version of SGTA was used in SEC and NMR experiments to understand the effect it had on Rpn13_260-407 binding.
# Gene fragments encoding human Rpn13 (260–407 and 260–402) and SGTA_TPR domain (84–211) were PCR amplified from cDNA (Life Technologies) and cloned into the BamHI/XhoI site of a modified pET28 vector which encodes an N-terminal thioredoxine A (TxA) fusion protein followed by a hexahistidine tag and tobacco etch virus (TEV) protease cleavage site. […]
molecule,measurement,value
B1,SEC complex formation with K160E/R164E SGTA_TPR,does not co-elute; also recorded: no evidence of complex formation

# From publication PMC5101480 (Scientific Reports, 2016)
